Source: patent US20160264649A1

Key:
Experiment in all cases: cell-based or functional assay
[1] = biological target: HIV-1 92RW024 Env (HIV-1)
[2] = biological target: HIV-1 92RW026 Env (HIV-1)
[3] = biological target: HIV-1 92UG037 Env (HIV-1)
[4] = biological target: HIV-1 MGRM-A-001 Env (HIV-1)
[5] = biological target: HIV-1 MGRM-A-008 Env (HIV-1)
[6] = biological target: HIV-1 MGRM-A-011 Env (HIV-1)
[7] = biological target: HIV-1 92BR020 Env on pseudovirus (HIV-1)
[8] = biological target: HIV-1 92TH021 Env (HIV-1)
[9] = biological target: HIV-1 93MW959 Env on pseudovirus (HIV-1)
[10] = biological target: HIV-1 94UG114 Env (HIV-1)
[11] = biological target: HIV-1 97ZA012 Env on pseudovirus (HIV-1)
[12] = biological target: HIV-1 98CN009 Env on pseudovirus (HIV-1)
[13] = biological target: HIV-1 APV_13 Env on pseudovirus (HIV-1)
[14] = biological target: HIV-1 APV_6 Env on pseudovirus (HIV-1)
[15] = biological target: HIV-1 CAAN.A2 (Acute) Env on pseudovirus (HIV-1)
[16] = biological target: HIV-1 IAVI-C3 Env (HIV-1)
[17] = biological target: HIV-1 LAVI_C22 Env on pseudovirus (HIV-1)
[18] = biological target: HIV-1 LAVI_C3 Env on pseudovirus (HIV-1)
[19] = biological target: HIV-1 MGRM-AE-003 Env (HIV-1)
[20] = biological target: HIV-1 MGRM-AG-005 Env (HIV-1)
[21] = biological target: HIV-1 MGRM-AG-006 Env (HIV-1)
[22] = biological target: HIV-1 MGRM-AG-012 Env (HIV-1)
[23] = biological target: HIV-1 MGRM-AG-013 Env (HIV-1)
[24] = biological target: HIV-1 MGRM-C-008 Env on pseudovirus (HIV-1)
[25] = biological target: HIV-1 MGRM-C-009 Env on pseudovirus (HIV-1)
[26] = biological target: HIV-1 MGRM-C-010 Env on pseudovirus (HIV-1)
[27] = biological target: HIV-1 MGRM-C-012 Env on pseudovirus (HIV-1)
[28] = biological target: HIV-1 MGRM-C-013 Env on pseudovirus (HIV-1)
[29] = biological target: HIV-1 MGRM-C-022 Env on pseudovirus (HIV-1)
[30] = biological target: HIV-1 MGRM-C-025 Env on pseudovirus (HIV-1)
[31] = biological target: HIV-1 MGRM-Chronic-B-002 Env on pseudovirus (HIV-1)
[32] = biological target: HIV-1 MGRM-Chronic-B-017 Env on pseudovirus (HIV-1)
[33] = biological target: HIV-1 MGRM-D-002 Env (HIV-1)
[34] = biological target: HIV-1 MGRM-D-003 Env (HIV-1)
[35] = biological target: HIV-1 MGRM-D-012 Env (HIV-1)
[36] = biological target: HIV-1 MGRM-D-013 Env (HIV-1)
[37] = biological target: HIV-1 MGRM-D-014 Env (HIV-1)
[38] = biological target: HIV-1 MGRM-D-019 Env (HIV-1)
[39] = biological target: HIV-1 MGRM-D-020 Env (HIV-1)
[40] = biological target: HIV-1 MGRM-D-022 Env (HIV-1)
[41] = biological target: HIV-1 MGRM-D-024 Env (HIV-1)
[42] = biological target: HIV-1 MGRM-D-028 Env (HIV-1)
[43] = biological target: HIV-1 MGRM-F1-017 Env (HIV-1)
[44] = biological target: HIV-1 MGRM-F1-018 Env (HIV-1)
[45] = biological target: HIV-1 MGRM-F1-020 Env (HIV-1)
[46] = biological target: HIV-1 MGRM-F1-023 Env (HIV-1)
[47] = biological target: HIV-1 MGRM-G-016 Env (HIV-1)
[48] = biological target: HIV-1 MGRM-G-024 Env (HIV-1)
[49] = biological target: HIV-1 MGRM-G-025 Env (HIV-1)
[50] = biological target: HIV-1 NL43 Env on pseudovirus (HIV-1)
[51] = biological target: HIV-1 SF162 Env on pseudovirus (HIV-1) (UniProt P19550)
[52] = biological target: HIV-1 VLGCB3 Env on pseudovirus (HIV-1)
aMLV envelope = biological target: aMLV envelope

Substance: 2F5 (antibody)
- neutralization IC50 [1]: 8.22 µg/mL
- neutralization IC50 [2]: 8.63 µg/mL
- neutralization IC50 [3]: 3.24 µg/mL
- neutralization IC50 [4]: > 50 µg/mL
- neutralization IC50 [5]: > 50 µg/mL
- neutralization IC50 [6]: > 50 µg/mL
- IC50 [7]: > 50 µg/mL
- neutralization IC50 [8]: 1.51 µg/mL
- neutralization IC90 [8]: 18.8 µg/mL
- IC50 [9]: > 50 µg/mL
- IC50 (µg/ml), pseudovirus neutralization [10]: > 50 µg/mL
- IC50 [11]: > 50 µg/mL
- IC50 [12]: > 50 µg/mL
- IC50 [13]: 3.81 µg/mL
- IC50 [14]: 0.25 µg/mL
- IC50 [15]: 23.1 µg/mL
- neutralization IC50 [16]: > 50 µg/mL
- IC50 [17]: > 50 µg/mL
- IC50 [18]: > 50 µg/mL
- IC50 (µg/ml), pseudovirus neutralization [19]: 0.24 µg/mL
- IC50 (µg/ml), pseudovirus neutralization [20]: > 50 µg/mL
- IC50 (µg/ml), pseudovirus neutralization [21]: 0.85 µg/mL
- IC50 (µg/ml), pseudovirus neutralization [22]: 0.33 µg/mL
- IC50 (µg/ml), pseudovirus neutralization [23]: 1.79 µg/mL
- IC50 [24]: > 50 µg/mL
- IC50 [25]: > 50 µg/mL
- IC50 [26]: > 50 µg/mL
- IC50 [27]: > 50 µg/mL
- IC50 [28]: 18.4 µg/mL
- IC50 [29]: > 50 µg/mL
- IC50 [30]: > 50 µg/mL
- IC50 [31]: 1.25 µg/mL
- IC50 [32]: > 50 µg/mL
- IC50 (µg/ml), pseudovirus neutralization [33]: 24.6 µg/mL
- IC50 (µg/ml), pseudovirus neutralization [34]: > 50 µg/mL
- IC50 (µg/ml), pseudovirus neutralization [35]: 1.7 µg/mL
- IC50 (µg/ml), pseudovirus neutralization [36]: 2.12 µg/mL
- IC50 (µg/ml), pseudovirus neutralization [37]: 2.22 µg/mL
- IC50 (µg/ml), pseudovirus neutralization [38]: 0.14 µg/mL
- IC50 (µg/ml), pseudovirus neutralization [39]: > 50 µg/mL
- IC50 (µg/ml), pseudovirus neutralization [40]: 8.45 µg/mL
- IC50 (µg/ml), pseudovirus neutralization [41]: > 50 µg/mL
- IC50 (µg/ml), pseudovirus neutralization [42]: > 50 µg/mL
- IC50 (pseudovirus neutralization) [43]: > 50 µg/mL
- IC50 (pseudovirus neutralization) [44]: 3.91 µg/mL
- IC50 (pseudovirus neutralization) [45]: 0.59 µg/mL
- IC50 (pseudovirus neutralization) [46]: 1.78 µg/mL
- IC50 (µg/ml), pseudovirus neutralization [47]: 16.8 µg/mL
- IC50 (µg/ml), pseudovirus neutralization [48]: 1.07 µg/mL
- IC50 (µg/ml), pseudovirus neutralization [49]: > 50 µg/mL
- IC50 [50]: 2.02 µg/mL
- IC50 [51]: 2.52 µg/mL
- IC50 [52]: > 50 µg/mL
- neutralization IC50 (aMLV envelope): > 50 µg/mL
- neutralization IC90 (aMLV envelope): > 50 µg/mL

Substance: 2G12 (antibody)
- neutralization IC50 [1]: > 50 µg/mL
- neutralization IC50 [2]: 17.2 µg/mL
- neutralization IC50 [3]: 45.2 µg/mL
- neutralization IC50 [4]: > 50 µg/mL
- neutralization IC50 [5]: > 50 µg/mL
- neutralization IC50 [6]: > 50 µg/mL
- IC50 [7]: 4.84 µg/mL
- IC50 (µg/ml), pseudovirus neutralization [8]: > 50 µg/mL
- neutralization IC50 [8]: > 50 µg/mL
- neutralization IC90 [8]: > 50 µg/mL
- IC50 [9]: > 50 µg/mL
- IC50 (µg/ml), pseudovirus neutralization [10]: 13.9 µg/mL
- IC50 [11]: > 50 µg/mL
- IC50 [12]: > 50 µg/mL
- IC50 [13]: 9.24 µg/mL
- IC50 [14]: 1.9 µg/mL
- IC50 [15]: > 50 µg/mL
- neutralization IC50 [16]: > 50 µg/mL
- neutralization IC90 [16]: > 50 µg/mL
- IC50 [17]: > 50 µg/mL
- IC50 [18]: > 50 µg/mL
- IC50 (µg/ml), pseudovirus neutralization [19]: > 50 µg/mL
- IC50 (µg/ml), pseudovirus neutralization [20]: > 50 µg/mL
- IC50 (µg/ml), pseudovirus neutralization [21]: 3.92 µg/mL
- IC50 (µg/ml), pseudovirus neutralization [22]: 1.94 µg/mL
- IC50 (µg/ml), pseudovirus neutralization [23]: 0.95 µg/mL
- IC50 [24]: > 50 µg/mL
- IC50 [25]: > 50 µg/mL
- IC50 [26]: > 50 µg/mL
- IC50 [27]: > 50 µg/mL
- IC50 [28]: > 50 µg/mL
- IC50 [29]: > 50 µg/mL
- IC50 [30]: > 50 µg/mL
- IC50 [31]: > 50 µg/mL
- IC50 [32]: > 50 µg/mL
- IC50 (µg/ml), pseudovirus neutralization [33]: > 50 µg/mL
- IC50 (µg/ml), pseudovirus neutralization [34]: > 50 µg/mL
- IC50 (µg/ml), pseudovirus neutralization [35]: > 50 µg/mL
- IC50 (µg/ml), pseudovirus neutralization [36]: > 50 µg/mL
- IC50 (µg/ml), pseudovirus neutralization [37]: > 50 µg/mL
- IC50 (µg/ml), pseudovirus neutralization [38]: > 50 µg/mL
- IC50 (µg/ml), pseudovirus neutralization [39]: > 50 µg/mL
- IC50 (µg/ml), pseudovirus neutralization [40]: > 50 µg/mL
- IC50 (µg/ml), pseudovirus neutralization [41]: > 50 µg/mL
- IC50 (µg/ml), pseudovirus neutralization [42]: > 50 µg/mL
- IC50 (pseudovirus neutralization) [43]: > 50 µg/mL
- IC50 (pseudovirus neutralization) [44]: > 50 µg/mL
- IC50 (pseudovirus neutralization) [45]: > 50 µg/mL
- IC50 (pseudovirus neutralization) [46]: 9.23 µg/mL
- IC50 (µg/ml), pseudovirus neutralization [47]: > 50 µg/mL
- IC50 (µg/ml), pseudovirus neutralization [48]: > 50 µg/mL
- IC50 (µg/ml), pseudovirus neutralization [49]: 31.9 µg/mL
- IC50 [50]: 0.49 µg/mL
- IC50 [51]: 1.67 µg/mL
- IC50 [52]: 7.9 µg/mL
- neutralization IC50 (aMLV envelope): > 50 µg/mL
- neutralization IC90 (aMLV envelope): > 50 µg/mL

Substance: 1496_C09 (PG9) (TCN-109) (antibody)
- neutralization IC50 [1]: 0.18 µg/mL
- neutralization IC50 [2]: 0.27 µg/mL
- IC50 (µg/ml), pseudovirus neutralization [8]: 0.09 µg/mL
- neutralization IC50 [8]: 0.111 µg/mL
- neutralization IC90 [8]: 1.99 µg/mL
- IC50 [9]: 0.04 µg/mL
- IC50 [11]: 1.27 µg/mL
- IC50 [12]: 1.07 µg/mL
- IC50 [14]: 0.12 µg/mL
- IC50 [15]: 5.67 µg/mL
- neutralization IC50 [16]: 12.9 µg/mL
- IC50 [18]: 1.45 µg/mL
- IC50 (µg/ml), pseudovirus neutralization [20]: 29.7 µg/mL
- IC50 (µg/ml), pseudovirus neutralization [22]: 1.37 µg/mL
- IC50 (µg/ml), pseudovirus neutralization [23]: 0.23 µg/mL
- IC50 [26]: 12.4 µg/mL
- IC50 [27]: 0.24 µg/mL
- IC50 [29]: 0.19 µg/mL
- IC50 [30]: 0.17 µg/mL
- IC50 [31]: 1.41 µg/mL
- IC50 [32]: 0.32 µg/mL
- IC50 (µg/ml), pseudovirus neutralization [33]: 0.027 µg/mL
- IC50 (µg/ml), pseudovirus neutralization [35]: 9.31 µg/mL
- IC50 (µg/ml), pseudovirus neutralization [36]: 0.06 µg/mL
- IC50 (µg/ml), pseudovirus neutralization [38]: 0.03 µg/mL
- IC50 (µg/ml), pseudovirus neutralization [39]: 2.03 µg/mL
- IC50 (µg/ml), pseudovirus neutralization [41]: 0.03 µg/mL
- IC50 (µg/ml), pseudovirus neutralization [42]: 4.39 µg/mL
- IC50 (pseudovirus neutralization) [44]: 0.03 µg/mL
- IC50 (pseudovirus neutralization) [45]: 4.55 µg/mL
- IC50 (µg/ml), pseudovirus neutralization [47]: 0.4 µg/mL
- IC50 (µg/ml), pseudovirus neutralization [48]: 0.07 µg/mL
- IC50 [50]: 0.32 µg/mL
